Assay results from article PMC4433220.

Key:
Dps [1] = target: T1, Dps (Escherichia coli, UniProt P0ABT2 1-167); assay: EMSA; 2-fold Dps excess: triplex significantly reduced; EMSA: 50 mM Tris-HCl pH 7.5, 0.1 mM EDTA, 50 mM NaCl, 37°C 30 min; footprinting: 50 mM Tris-HCl pH 8.0, 0.1 mM EDTA, 0.1 mM DTT, 10 mM MgCl2, 50 mM NaCl, 5 mg/m
Dps [2] = target: T1, Dps; assay: AFM; bound protein slightly shifted from center; EMSA: 50 mM Tris-HCl pH 7.5, 0.1 mM EDTA, 50 mM NaCl, 37°C 30 min; footprinting: 50 mM Tris-HCl pH 8.0, 0.1 mM EDTA, 0.1 mM DTT, 10 mM MgCl2, 50 mM NaCl, 5 mg/m

| Binder | binding result (Dps [1]) | binding result (Dps [2]) |
| --- | --- | --- |
| Y5_Y6_Y7 (structured_DNA) DNA 1: CTTTTCCTCTACACCGTCTTTATATATCGAATTAAGAAGTCGCAATGAGTATTACTTTGTAAAT DNA 2: CAAGGGTAAACGAACCTTGCGCTTTCTTAAATATTCGATATATAAAGACGGTGTAGAGGAAAAG DNA 3: ATTTACAAAGTAATACTCATTGCGACTTCTTAATTTAAGAAAGCGCAAGGTTCGTTTACCCTTG | binds |  |
| Y5_Y6_Y8 (structured_DNA) DNA 1: CTTTTCCTCTACACCGTCTTTATATATCGAATTAAGAAGTCGCAATGAGTATTACTTTGTAAAT DNA 2: CAAGGGTAAACGAACCTTGCGCTTTCTTAAATATTCGATATATAAAGACGGTGTAGAGGAAAAG DNA 3: ATTTACAAAGTAATACTCATTGCGACTTCTTAATTTAAGAAAGCGCAAGGAACGTTTACCCTTG |  | binds |
